Assay results published in US20160272683A1 (Novo Nordisk, published 2016).
Numbered stars: 1 amine (or outer) side, 2 acyl side, 3 side chain; on linkers, the order of the positions; unused ones are H or OH. * marks the point of attachment. C20 diacid = O=C(O)CCCCCCCCCCCCCCCCCCC(=O)*; C18 diacid = O=C(O)CCCCCCCCCCCCCCCCC(=O)*; C16 diacid = O=C(O)CCCCCCCCCCCCCCC(=O)*; γGlu = O=C(O)[C@H](CCC(=O)[*:2])N[*:1]

T1: human amylin 3(a) receptor (human calcitonin receptor co-expressed with RAMP-3) (human, UniProt P30988 25-474; O60896 24-148, limits assumed)
T1 sequence (looked up) 1: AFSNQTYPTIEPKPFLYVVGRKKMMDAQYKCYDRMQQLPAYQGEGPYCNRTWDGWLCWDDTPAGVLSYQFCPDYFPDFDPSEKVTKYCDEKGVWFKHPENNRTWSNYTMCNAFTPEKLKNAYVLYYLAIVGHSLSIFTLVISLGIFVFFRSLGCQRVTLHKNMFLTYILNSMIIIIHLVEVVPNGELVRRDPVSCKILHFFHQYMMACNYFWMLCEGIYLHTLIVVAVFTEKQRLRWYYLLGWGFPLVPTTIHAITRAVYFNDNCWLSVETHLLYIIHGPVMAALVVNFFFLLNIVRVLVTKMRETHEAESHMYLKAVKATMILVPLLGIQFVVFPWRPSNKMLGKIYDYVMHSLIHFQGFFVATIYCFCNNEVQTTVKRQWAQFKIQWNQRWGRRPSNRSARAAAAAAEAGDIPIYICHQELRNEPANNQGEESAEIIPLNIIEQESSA
T1 sequence (looked up) 2: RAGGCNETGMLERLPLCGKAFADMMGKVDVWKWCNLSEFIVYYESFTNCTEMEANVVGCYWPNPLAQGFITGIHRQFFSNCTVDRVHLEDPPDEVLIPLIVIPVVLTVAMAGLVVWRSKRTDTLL

T2: human calcitonin receptor (human, UniProt P30988 25-474)
T2 sequence (looked up): T1 sequence (looked up) 1

B1: [N-terminal(C18 diacid), 9V, 18A]mimylin (peptide)
peptide: {C18 diacid}-EASELSTAVLGRLSAELAELATLPRTETGPESP-NH2
SMILES: CC(C)C[C@H](NC(=O)[C@H](CCC(=O)O)NC(=O)[C@H](C)NC(=O)[C@H](CO)NC(=O)[C@H](CC(C)C)NC(=O)[C@H](CCCNC(=N)N)NC(=O)CNC(=O)[C@H](CC(C)C)NC(=O)[C@@H](NC(=O)[C@H](C)NC(=O)[C@@H](NC(=O)[C@H](CO)NC(=O)[C@H](CC(C)C)NC(=O)[C@H](CCC(=O)O)NC(=O)[C@H](CO)NC(=O)[C@H](C)NC(=O)[C@H](CCC(=O)O)NC(=O)CCCCCCCCCCCCCCCCC(=O)O)[C@@H](C)O)C(C)C)C(=O)N[C@@H](C)C(=O)N[C@@H](CCC(=O)O)C(=O)N[C@@H](CC(C)C)C(=O)N[C@@H](C)C(=O)N[C@H](C(=O)N[C@@H](CC(C)C)C(=O)N1CCC[C@H]1C(=O)N[C@@H](CCCNC(=N)N)C(=O)N[C@H](C(=O)N[C@@H](CCC(=O)O)C(=O)N[C@H](C(=O)NCC(=O)N1CCC[C@H]1C(=O)N[C@@H](CCC(=O)O)C(=O)N[C@@H](CO)C(=O)N1CCC[C@H]1C(N)=O)[C@@H](C)O)[C@@H](C)O)[C@@H](C)O
B2: [N-terminal(C18 diacid), 9V, 25P]mimylin (peptide)
peptide: {C18 diacid}-EASELSTAVLGRLSAELHELATLPPTETGPESP-NH2
SMILES: CC(C)C[C@H](NC(=O)[C@H](CCC(=O)O)NC(=O)[C@H](Cc1c[nH]cn1)NC(=O)[C@H](CC(C)C)NC(=O)[C@H](CCC(=O)O)NC(=O)[C@H](C)NC(=O)[C@H](CO)NC(=O)[C@H](CC(C)C)NC(=O)[C@H](CCCNC(=N)N)NC(=O)CNC(=O)[C@H](CC(C)C)NC(=O)[C@@H](NC(=O)[C@H](C)NC(=O)[C@@H](NC(=O)[C@H](CO)NC(=O)[C@H](CC(C)C)NC(=O)[C@H](CCC(=O)O)NC(=O)[C@H](CO)NC(=O)[C@H](C)NC(=O)[C@H](CCC(=O)O)NC(=O)CCCCCCCCCCCCCCCCC(=O)O)[C@@H](C)O)C(C)C)C(=O)N[C@@H](C)C(=O)N[C@H](C(=O)N[C@@H](CC(C)C)C(=O)N1CCC[C@H]1C(=O)N1CCC[C@H]1C(=O)N[C@H](C(=O)N[C@@H](CCC(=O)O)C(=O)N[C@H](C(=O)NCC(=O)N1CCC[C@H]1C(=O)N[C@@H](CCC(=O)O)C(=O)N[C@@H](CO)C(=O)N1CCC[C@H]1C(N)=O)[C@@H](C)O)[C@@H](C)O)[C@@H](C)O
B3: [N-terminal(C20 diacid-gGlu), 23Y, 30S, 31G]mimylin (peptide)
peptide: {C20 diacid-γGlu}-EASELSTAALGRLSAELHELATYPRTETGSGSP-NH2
SMILES: CC(C)C[C@H](NC(=O)[C@H](C)NC(=O)[C@H](C)NC(=O)[C@@H](NC(=O)[C@H](CO)NC(=O)[C@H](CC(C)C)NC(=O)[C@H](CCC(=O)O)NC(=O)[C@H](CO)NC(=O)[C@H](C)NC(=O)[C@H](CCC(=O)O)NC(=O)CC[C@H](NC(=O)CCCCCCCCCCCCCCCCCCC(=O)O)C(=O)O)[C@@H](C)O)C(=O)NCC(=O)N[C@@H](CCCNC(=N)N)C(=O)N[C@@H](CC(C)C)C(=O)N[C@@H](CO)C(=O)N[C@@H](C)C(=O)N[C@@H](CCC(=O)O)C(=O)N[C@@H](CC(C)C)C(=O)N[C@@H](Cc1c[nH]cn1)C(=O)N[C@@H](CCC(=O)O)C(=O)N[C@@H](CC(C)C)C(=O)N[C@@H](C)C(=O)N[C@H](C(=O)N[C@@H](Cc1ccc(O)cc1)C(=O)N1CCC[C@H]1C(=O)N[C@@H](CCCNC(=N)N)C(=O)N[C@H](C(=O)N[C@@H](CCC(=O)O)C(=O)N[C@H](C(=O)NCC(=O)N[C@@H](CO)C(=O)NCC(=O)N[C@@H](CO)C(=O)N1CCC[C@H]1C(N)=O)[C@@H](C)O)[C@@H](C)O)[C@@H](C)O
B4: [N-terminal(C18 diacid-gGlu), des1, 30S, 31P]mimylin (peptide)
peptide: {C18 diacid-γGlu}-ASELSTAALGRLSAELHELATLPRTETGSPSP-NH2
SMILES: CC(C)C[C@H](NC(=O)[C@H](C)NC(=O)[C@H](C)NC(=O)[C@@H](NC(=O)[C@H](CO)NC(=O)[C@H](CC(C)C)NC(=O)[C@H](CCC(=O)O)NC(=O)[C@H](CO)NC(=O)[C@H](C)NC(=O)CC[C@H](NC(=O)CCCCCCCCCCCCCCCCC(=O)O)C(=O)O)[C@@H](C)O)C(=O)NCC(=O)N[C@@H](CCCNC(=N)N)C(=O)N[C@@H](CC(C)C)C(=O)N[C@@H](CO)C(=O)N[C@@H](C)C(=O)N[C@@H](CCC(=O)O)C(=O)N[C@@H](CC(C)C)C(=O)N[C@@H](Cc1c[nH]cn1)C(=O)N[C@@H](CCC(=O)O)C(=O)N[C@@H](CC(C)C)C(=O)N[C@@H](C)C(=O)N[C@H](C(=O)N[C@@H](CC(C)C)C(=O)N1CCC[C@H]1C(=O)N[C@@H](CCCNC(=N)N)C(=O)N[C@H](C(=O)N[C@@H](CCC(=O)O)C(=O)N[C@H](C(=O)NCC(=O)N[C@@H](CO)C(=O)N1CCC[C@H]1C(=O)N[C@@H](CO)C(=O)N1CCC[C@H]1C(N)=O)[C@@H](C)O)[C@@H](C)O)[C@@H](C)O
B5: [N-terminal(C18 diacid), 9V, 28P]mimylin (peptide)
peptide: {C18 diacid}-EASELSTAVLGRLSAELHELATLPRTEPGPESP-NH2
SMILES: CC(C)C[C@H](NC(=O)[C@H](CCC(=O)O)NC(=O)[C@H](Cc1c[nH]cn1)NC(=O)[C@H](CC(C)C)NC(=O)[C@H](CCC(=O)O)NC(=O)[C@H](C)NC(=O)[C@H](CO)NC(=O)[C@H](CC(C)C)NC(=O)[C@H](CCCNC(=N)N)NC(=O)CNC(=O)[C@H](CC(C)C)NC(=O)[C@@H](NC(=O)[C@H](C)NC(=O)[C@@H](NC(=O)[C@H](CO)NC(=O)[C@H](CC(C)C)NC(=O)[C@H](CCC(=O)O)NC(=O)[C@H](CO)NC(=O)[C@H](C)NC(=O)[C@H](CCC(=O)O)NC(=O)CCCCCCCCCCCCCCCCC(=O)O)[C@@H](C)O)C(C)C)C(=O)N[C@@H](C)C(=O)N[C@H](C(=O)N[C@@H](CC(C)C)C(=O)N1CCC[C@H]1C(=O)N[C@@H](CCCNC(=N)N)C(=O)N[C@H](C(=O)N[C@@H](CCC(=O)O)C(=O)N1CCC[C@H]1C(=O)NCC(=O)N1CCC[C@H]1C(=O)N[C@@H](CCC(=O)O)C(=O)N[C@@H](CO)C(=O)N1CCC[C@H]1C(N)=O)[C@@H](C)O)[C@@H](C)O
B6: [N-terminal(C18 diacid), 3P, 9V]mimylin (peptide)
peptide: {C18 diacid}-EAPELSTAVLGRLSAELHELATLPRTETGPESP-NH2
SMILES: CC(C)C[C@H](NC(=O)[C@H](CCC(=O)O)NC(=O)[C@H](Cc1c[nH]cn1)NC(=O)[C@H](CC(C)C)NC(=O)[C@H](CCC(=O)O)NC(=O)[C@H](C)NC(=O)[C@H](CO)NC(=O)[C@H](CC(C)C)NC(=O)[C@H](CCCNC(=N)N)NC(=O)CNC(=O)[C@H](CC(C)C)NC(=O)[C@@H](NC(=O)[C@H](C)NC(=O)[C@@H](NC(=O)[C@H](CO)NC(=O)[C@H](CC(C)C)NC(=O)[C@H](CCC(=O)O)NC(=O)[C@@H]1CCCN1C(=O)[C@H](C)NC(=O)[C@H](CCC(=O)O)NC(=O)CCCCCCCCCCCCCCCCC(=O)O)[C@@H](C)O)C(C)C)C(=O)N[C@@H](C)C(=O)N[C@H](C(=O)N[C@@H](CC(C)C)C(=O)N1CCC[C@H]1C(=O)N[C@@H](CCCNC(=N)N)C(=O)N[C@H](C(=O)N[C@@H](CCC(=O)O)C(=O)N[C@H](C(=O)NCC(=O)N1CCC[C@H]1C(=O)N[C@@H](CCC(=O)O)C(=O)N[C@@H](CO)C(=O)N1CCC[C@H]1C(N)=O)[C@@H](C)O)[C@@H](C)O)[C@@H](C)O
B7: [N-terminal(C18 diacid), 4P, 9V]mimylin (peptide)
peptide: {C18 diacid}-EASPLSTAVLGRLSAELHELATLPRTETGPESP-NH2
SMILES: CC(C)C[C@H](NC(=O)[C@H](CCC(=O)O)NC(=O)[C@H](Cc1c[nH]cn1)NC(=O)[C@H](CC(C)C)NC(=O)[C@H](CCC(=O)O)NC(=O)[C@H](C)NC(=O)[C@H](CO)NC(=O)[C@H](CC(C)C)NC(=O)[C@H](CCCNC(=N)N)NC(=O)CNC(=O)[C@H](CC(C)C)NC(=O)[C@@H](NC(=O)[C@H](C)NC(=O)[C@@H](NC(=O)[C@H](CO)NC(=O)[C@H](CC(C)C)NC(=O)[C@@H]1CCCN1C(=O)[C@H](CO)NC(=O)[C@H](C)NC(=O)[C@H](CCC(=O)O)NC(=O)CCCCCCCCCCCCCCCCC(=O)O)[C@@H](C)O)C(C)C)C(=O)N[C@@H](C)C(=O)N[C@H](C(=O)N[C@@H](CC(C)C)C(=O)N1CCC[C@H]1C(=O)N[C@@H](CCCNC(=N)N)C(=O)N[C@H](C(=O)N[C@@H](CCC(=O)O)C(=O)N[C@H](C(=O)NCC(=O)N1CCC[C@H]1C(=O)N[C@@H](CCC(=O)O)C(=O)N[C@@H](CO)C(=O)N1CCC[C@H]1C(N)=O)[C@@H](C)O)[C@@H](C)O)[C@@H](C)O

Molecular target: T1, human amylin 3(a) receptor (human …)
Experiment: cell-based or functional assay

| hAmylin-R funct. EC50 (pM) | Binder |
| --- | --- |
| 8 | B1 |
| 14 | B2 |
| 12 | B3 |
| 8 | {C16 diacid}-EASELSTAALGRLSAELHELATLPRTETGPESP-NH2 [[N-terminal(C16 diacid)]mimylin] |
| 13 | B4 |
| 31 | B5 |
| 10 | B6 |
| 14 | B7 |

Molecular target: T2, human calcitonin receptor
Experiment: cell-based or functional assay

| hCTR funct. EC50 (pM) | Binder |
| --- | --- |
| 7 | B1 |
| 6 | B2 |
| 14 | B3 |
| 4 | {C16 diacid}-EASELSTAALGRLSAELHELATLPRTETGPESP-NH2 [[N-terminal(C16 diacid)]mimylin] |
| 8 | B4 |
| 12 | B5 |
| 7 | B6 |
| 7 | B7 |
